Measurements: PMC3629208, “Effective Identification of Akt Interacting Proteins by Two-Step Chemical Crosslinking, Co-Immunoprecipitation and Mass Spectrometry” (PLoS ONE, 2013)

Biological target: T1, Akt (protein kinase B), Akt1 (mouse (endogenous in Neuro 2A), UniProt P31750 1-480)
T1 construct: Akt1, mouse, endogenous in Neuro 2A cells, captured by a rabbit anti-Akt antibody; MS peptide assigned to Akt1 (gi/6753034); Bait of all co-IPs; The anti-Akt antibody may also capture other Akt isoforms; Cells were unstimulated or IGF-1 stimulated (phospho-T308 as the mark of active Akt); source: endogenous, Neuro 2A lysate
T1 sequence (P31750 whole entry, canonical isoform): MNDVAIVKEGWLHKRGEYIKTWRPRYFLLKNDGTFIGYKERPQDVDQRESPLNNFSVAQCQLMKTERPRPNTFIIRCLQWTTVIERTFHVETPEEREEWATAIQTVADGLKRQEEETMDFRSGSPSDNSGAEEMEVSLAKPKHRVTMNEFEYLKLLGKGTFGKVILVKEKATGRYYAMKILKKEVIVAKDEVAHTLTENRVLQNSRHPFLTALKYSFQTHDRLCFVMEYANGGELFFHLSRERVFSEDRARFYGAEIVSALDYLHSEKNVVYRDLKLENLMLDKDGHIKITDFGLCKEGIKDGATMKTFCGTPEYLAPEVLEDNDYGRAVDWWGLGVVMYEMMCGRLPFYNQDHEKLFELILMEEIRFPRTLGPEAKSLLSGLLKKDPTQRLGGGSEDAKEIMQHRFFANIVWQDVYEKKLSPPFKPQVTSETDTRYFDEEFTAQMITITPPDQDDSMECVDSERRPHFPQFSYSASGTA
Assay: co-IP; two-step crosslinking co-IP (DSS-fixed anti-Akt antibody, DSP-crosslinking of the bound complexes) from Neuro 2A lysate, western blot; cells with or without IGF-1 (10 ng/mL, 10 min); band intensity normalized to Akt level
Conditions: partners not purified

B1: ErbB3 binding protein 1 (EBP1, also called proliferation-associated protein 2G4) (natural protein, mouse (endogenous in Neuro 2A), UniProt P50580 1-394, looked up)
chain: MSGEDEQQEQTIAEDLVVTKYKMGGDIANRVLRSLVEASSSGVSVLSLCEKGDAMIMEETGKIFKKEKEMKKGIAFPTSISVNNCVCHFSPLKSDQDYILKEGDLVKIDLGVHVDGFIANVAHTFVIGVAQGTQVTGRKADVIKAAHLCAEAALRLVKPGNQNTQVTEAWNKVAHSFNCTPIEGMLSHQLKQHVIDGEKTIIQNPTDQQKKDHEKAEFEVHEVYAVDVLVSSGEGKAKDAGQRTTIYKRDPSKQYGLKMKTSRAFFSEVERRFDAMPFTLRAFEDEKKARMGVVECAKHELLQPFNVLYEKEGEFVAQFKFTVLLMPNGPMRITSGPFEPDLYKSEMEVQDAELKALLQSSASRKTQKKKKKKASKTVENATSGETLEENGAGD
notes: EBP1 (proliferation-associated protein 2G4), mouse, endogenous; gi 116283229, 42 kDa; source: endogenous, Neuro 2A lysate
fold increase of association, IGF-stimulated (active Akt) against unstimulated, normalized to Akt level: 2.4 fold

B2: nuclear distribution gene C (Nudc, also named nuclear migration gene C) (natural protein)
chain: not shown
notes: nuclear migration protein nudC, mouse, endogenous; gi 6754910, 38 kDa; source: endogenous, Neuro 2A lysate
fold change of association, IGF-stimulated against unstimulated, normalized to Akt level: 0.97 ± 0.1 fold

B3: extracellular regulated kinase-1 and -2 (ERK1/2) (natural protein, mouse (endogenous in Neuro 2A), UniProt P63085 1-358, looked up)
chain: MAAAAAAGPEMVRGQVFDVGPRYTNLSYIGEGAYGMVCSAYDNLNKVRVAIKKISPFEHQTYCQRTLREIKILLRFRHENIIGINDIIRAPTIEQMKDVYIVQDLMETDLYKLLKTQHLSNDHICYFLYQILRGLKYIHSANVLHRDLKPSNLLLNTTCDLKICDFGLARVADPDHDHTGFLTEYVATRWYRAPEIMLNSKGYTKSIDIWSVGCILAEMLSNRPIFPGKHYLDQLNHILGILGSPSQEDLNCIINLKARNYLLSLPHKNKVPWNRLFPNADSKALDLLDKMLTFNPHKRIEVEQALAHPYLEQYYDPSDEPIAEAPFKFDMELDDLPKEKLKELIFEETARFQPGYRS
notes: ERK1/2, mouse, endogenous; the MS entry is a single 42 kDa protein; source: endogenous, Neuro 2A lysate
fold change of association, IGF-stimulated against unstimulated, normalized to Akt level: 0.98 fold
fold increase of co-precipitated ERK1/2 with DSP-crosslinking against without, normalized to Akt level: 2.5 ± 0.2 fold

B4: glycogen synthase kinase (GSK)-3β (enzyme, mouse (endogenous in Neuro 2A), UniProt Q9WV60 1-420, looked up)
chain: MSGRPRTTSFAESCKPVQQPSAFGSMKVSRDKDGSKVTTVVATPGQGPDRPQEVSYTDTKVIGNGSFGVVYQAKLCDSGELVAIKKVLQDKRFKNRELQIMRKLDHCNIVRLRYFFYSSGEKKDEVYLNLVLDYVPETVYRVARHYSRAKQTLPVIYVKLYMYQLFRSLAYIHSFGICHRDIKPQNLLLDPDTAVLKLCDFGSAKQLVRGEPNVSYICSRYYRAPELIFGATDYTSSIDVWSAGCVLAELLLGQPIFPGDSGVDQLVEIIKVLGTPTREQIREMNPNYTEFKFPQIKAHPWTKVFRPRTPPEAIALCSRLLEYTPTARLTPLEACAHSFFDELRDPNVKLPNGRDTPALFNFTTQELSSNPPLATILIPPHARIQAAASPPANATAASDTNAGDRGQTNNAASASASNST
notes: glycogen synthase kinase-3 beta, mouse, endogenous; gi 9790077, 47 kDa; source: endogenous, Neuro 2A lysate
fold increase of association, IGF-stimulated (active Akt) against unstimulated, normalized to Akt level: 1.8 fold
